This note sets out measurements from the nanobody polyreactivity screen of Harvey et al. (2022).

The nature of the data set: yeast display, Sf9 membrane polyspecificity reagent, FACS + sequencing; frameworks hold sequencing errors. Summed up: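 After 36–48 hours of galactose induction, yeast (Saccharomyces cerevisiae BJ5465) displaying a synthetic nanobody library were stained at 4 °C for 1 hour with 10% biotinylated, detergent-solubilized Sf9 membrane reagent. Streptavidin microbeads enriched the stained cells before FACS sorting into low and high (top ~1%) gates on anti-HA and streptavidin fluorescence. Each clone's polyreactivity label reflects its gate of origin.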
In the case of “QVQLVESGGGLVQAGGSLRLSCAAYGRTFRTNAMGWYRQAPGKERELVAAISTGGGITNYADSVKGRFTISRDNAKNTVYLQMNSLKPEDTAVYYCNADIYTWFQIGGYQYDYWGQGTQVTVSS”, the “polyreactivity (PSR sort gate)” value was “low polyreactivity”.
Next, “QVQLVESGGGLVQAGGSLRLSCAASGSTFYPNAMGWYRQAPGKERELVAAITSAGSTYYADSVKGRFTISRDNAKNTVYLQMNSLKPEDTAVYYCAKRRASRYYWGQGTQVTVSS”: “high polyreactivity”; “QVQLVESGGGLVQEGGSLRLSCAAAGIIFIAYAMGWYREAPGKERELVADISIGGSTNYADSVKGRFTISRDNAKNTVYLQMTSQKPEDTAVYYCNAGGGFYGSTVEHDYWGQGTQVSVSS”: “low polyreactivity”; “QVQLVESGGGLGQAGGSLRLSCAASGSIFYRYAMGWYRQAPGKERELVAAISSTGSTYYADSVKGRFTISRDHAKNTVYLEMNSLTPEDTAVYYGAARQGYRSYRRYDYWGQGTQVTVSS”: “high polyreactivity”.
Next, “QVQLVESGGGLVQAGGSLRLSCAASGFILAGYAMGWYRQAPGKERELVAAINSRGTRTYYADSVKGRFTISRDNAKNTVYLQMNSLKPEDTAVYYCAVHVWGTYGSWEYYYWGQGTQVTVSS”: “high polyreactivity”; “QVQLVESGGGLVQAGGSLRLSCAASGRIFVDNAMGWYRQAPGKERELVAAITRGGSTYADSVKGRFTISRDNAKNTVYLQMNSLKPEDTAVYYCAADLWSVPFTVYTFGIFYYWGQGTQVTVSS”: “low polyreactivity”.
The value for “QVQLVESGGGLVQAGGSLRLSCAASGRTFRDNPMGWYRHAPGKERELVAAISGRGSSTYYADSVKGRFTIARDNAKKTVYLQMNSLKPEDTAVYYCAALPASVRRPGWHDYWGQGTQVTVSS” was “high polyreactivity”; that for “QVQLVESGGGLVQAGGSLRLSCAASGSIFGYNAMGWYRPAPGKERELVAAISRSGGSTYYADSVKGRFTISRDNAKNTVYLQMNSLKPEDTAVSYCATGYYGYRYGYWGQGTQVTVSS” was “high polyreactivity”; that for “QVQLVESGGGLVQAGGSLRLSCASSGFIFSSYAMGWYRQAPGKERELVARISLSGGSTFYADSVKGRFTISRDNAKNTVYFQMNSLKPEDTAVYYCAARDFSTHFSPMDYWGQGTQVTVSS” was “low polyreactivity”.
As to “QVQLVESGGGLVKAGGSLRLSCAASGNIFRRYAMGWYRQARGKERELVAAITWRGGNTYYADSVKGRFTISRDNAKNTVYLQMNCLKPEDTAVYYCNRVYRQRLGRDYWGLGTQVTVSS”, the “polyreactivity (PSR sort gate)” value was “high polyreactivity”.
Turning to “QVQLQESGGLVQAGGLRLSCAASGSVSYQEAMGWYRQAPGKERELVATISFGANTNYADSVKGRFTISRDNAKNTVYLQMNSLKPEDTAVYYCAADAYRWWVRYDYWGQGTQVTVSS”, the “polyreactivity (PSR sort gate)” value is listed as “low polyreactivity”.
The value for “QVQLVESGGGLVQAGGSLRLSCAASGRIFTYYAMGWYRQAPGKERELVATISSSGSTNYADSVKGRFTISRDNAKNTVYLQMNSLKPEDTAVYYSAKKTRRRYDVKYDYWGQGTQVTVSS” was “low polyreactivity”; that for “QVQHVESGGGLVQAGGSLRLSCAASGQIYNQNAMGWYRQAPGKERELVAAISYRGGSTYYADSVKGRFTISRDNAKNTVYLQMNSLKPEDTADYYCAAARSGSGGKQFDHGFNYWGQGTQVTVSS” was “high polyreactivity”.
“QVQLVESGGGLVQAGGSLRLSCAASGRIFRKYAMGWYRQAPGTERELVATITLRGGSTYYADSVKGRFTISRDNGKNTVYLQMNSLKPEDTAVYYCATDITPAISVEYDYWGQGTQVTVSS”: the “polyreactivity (PSR sort gate)” value is recorded as “high polyreactivity”.
The value for “QVQLVESGGGLVQAGGSLRLSCAASGLTFGGNAMGWYRQAPGKERELVAAISWSDDTTDYADSVKGRFTISRDNAKNTVYLQMNSLKPEDTAVYYCADRLPFEHVDYWGQGTQVTVSS” was “low polyreactivity”.
Next, “HVQLVESGGGLVQAGGCLRLSCAASGRICIFYAMGWYRQAPGKERELVAAISSGPSTTYADSVKGRFTISRDNAKNTVYLQMNSLNPEDTAVYSCARRDGTTQALFGYDYWGQGTQVTVSS”: “low polyreactivity”; “QVQLVESGGGLVQAGGSLRLSCAASGFTFPPYAMGWYRQAPGKERELVAAISSAGSTKYADSVKGRFTISRDNAKNTVYLQMNSLKPEDSAVYYCDKKGRTARGRYDYWGQGTQVTVSS”: “low polyreactivity”.
The value for “QVQLVESGGGLVQAGGSLRLSCAASGSIFVGYVMGWYRQAPGKERELVAAISKSGSRTYYADSVKGRFTISRDNAKYTVYLQMNSLKPEDTAVYYCATAGYDADDYWGQGTQVTVSS” was “high polyreactivity”.
Regarding “QVQLVESGGGLVQAGGSLRLSCAASGSIFDRYAMGWYRQAPGKERELVASISNRGGRTFYADSVKGRFTISRDNAKNTVYLQMNSLKPEDTAVYYCARKTYYTGDFLGREYGYWGQGTQVTVSS”, the “polyreactivity (PSR sort gate)” value is on record as “low polyreactivity”.
Regarding “QVQLVESGGGLVQAGGSLRLSCAASGSTSQRYSMGWYRQAPAKEREVVAGITTSGGRTYYADSVKGRFTISRDNAKNTVYLQMNSLKPEDTAVYYCAARTQIWKYRGYYSWGQGTQVTVSS”, the “polyreactivity (PSR sort gate)” value is on record as “high polyreactivity”.
The value for “QVQLVESGGGLVQAGGSLRLSCAASGSTFRYNAMGWYRQAPGKERELVASINRGGGGTYYADSVKGRFTISRDNAKKTVYLQMNSLKPEDTAVYYCAKARFTRGTWFYYWGQGTQVTVSS” was “high polyreactivity”; that for “QDQLVESGGGLVQAGGSLRLSCAASGRTFAKSAMGWYRQAPGKERELVASISRRGGSTYYADSVKGRFTISRDNAKNTVYLQMNSLKPEDTAVYYCNAVVTVNGYDSWGQGTQVTVSS” was “high polyreactivity”.
Next, “QVQLVESGGGLVQAGGSLRLSCAASGSTLYWYAMGWYRQAPGKERELVARITVSGGSTSYADSVKGRFTISRYNAKNTVYLQMNSLKPEDTAVYYCAARRYWTGYYYWGQGTQVTVSS”: “high polyreactivity”; “QVQLVESGGGLVQAGGSLRLSCAASGSTFSVYGMGWYRQAPGKERELVAAITRGSRTYYADSVKGRFTISRDNAKNTVYLQMNSLKPEDTAVYYSAAKWWWRSYWGQGTQVTVSS”: “high polyreactivity”; “QVQLQESGGGLVQAGGSLRLSCAASGYISAGRQMGWYRQAPGKEREFVATINGGATTNYADSVKGRFTISRDNAKNSVYLQMNSLKPEDTAVYYCAAVIWYVQDYTYWGQGAQVTVSS”: “high polyreactivity”.
Turning to “QVQLVESGGGLVQAGGSLRLSCAASGSTFVSNAMGWYRPAPGKERELVAAISTSGGSTYYADSVKGRFTISRDNAKNTVYLLMNSLKPEDTAVYYCAKLLARGFRIWQDYDYWGQGTQVTVSS”, the “polyreactivity (PSR sort gate)” value is “low polyreactivity”.
The value for “QVQLVYSGGGLVQAGGSLRLSCAASGRTFSWYAMGWYRTAPGKESELVAAITWSGGSTYYADSVKGRFTISRDNAKNTVYLEMNSLKPEDTAVYFCNALRYSNRRYYSTGPHDYWGQGTHVTVSS” was “high polyreactivity”; that for “QVQLVESGGGLVQAGGSLRLSCAASGFTFSAYAMGWYRQAPGKERELVAAIRSSDITYYADSVKGRFTISRDNAKNTVYLQMNSLKPEDTAVYYCAADLGDYYLYYDYEYWGQGTQVTVSS” was “high polyreactivity”.
The value for “QVQLVESGGGLDQAGGSLRLSCAASRSTFPHYAMGWYRQAPGKERELVAAIYSTGGSTYYADSVKGRFTISRDNAKNTVYLQMNSLKPEDTAVYYCAASRLYWGQGNQVTVSS” was “high polyreactivity”; that for “QVQLVESGGGLVQAGGSLRLSCAASGSTFYQYAMGWYRQAPGKERELVAAISRSGSTNYADSVKGRFTISRDNAKNTVYLQMNSLKPEDTAVYDCAARLGTRQYKMDYWGQGTQVTVSS” was “high polyreactivity”.
The value for “QVQLVESAGGLVQAGGSLRLSCAAYGRTLAKYAMGWYRQAPGKERELVAAITRDGSTNYADSVKGRFTISRDNAKNTVYLQMNSLKPEDTAVYYCATRSYWYRVYYWGQGTQVTVSS” was “high polyreactivity”.
As for “QVQLVESGGGIVQAGGSLRLSCAASGSISFLYTMGWYRQAPGKERELVAAITGSTASTYYADSVKGRFTISRDNAKNTVYLQMNSLKPEDTAVYYCAAYWYAEGYWVSRDYWGQGTQVTVSS”, the “polyreactivity (PSR sort gate)” value is recorded as “low polyreactivity”.
In the case of “QVQLVESGGGLVQAGGSLRLSCAASGSTFTYYTMGWYRQAPGKERELVAAITSGTSTNYADSVKGRFTISRDNAKNTVYLQMNSLTPEDTAVYYEYDYWGQGTQVTVSS”, the “polyreactivity (PSR sort gate)” value is on record as “low polyreactivity”.
For “QVQLVESGGGLVQAGGSLRLSCAASGFTFSRNVMGWYRQAPGKERELVADITLSGASTYYADSVKGRFTISRDNAKNTVYLQMNSLKPEDTAVYYCAADPYHWRWGWRLDYWGQGTQVTVSS”, the “polyreactivity (PSR sort gate)” value is “low polyreactivity”.
The value for “QVHLVESGGGLVQAGGSLRLICAASGSTFLYYAKGWYRQAPGNEMELVAANSQSSASTYYADSVKGRFTISRDNAKTTIYFQIISLKPEDTAVYYCAADYWSVPYIYEYWRQGTQVTVSS” was “high polyreactivity”; that for “QVQLVESGGGLVQAGGSLRLSCAASGSTFSDYAMGWYRQAPGKERELVAAISRRGGSTYYADSVKGRFTISRDNAKNTVYLQMNSLKPEDTAVYYCAKAAYPWTRMEYWGQGTQVTVSS” was “high polyreactivity”.
The value for “QVQLGESGGGLVQAGGSLRLSCAASGRIIPYYAMGWYRQAPGKERELVAAISLSGGSTYYADSVKGRFTISRDIAKNTVYLQMNSLKPEDTAVYYCNAVASTYGYYWYPGLGYDYWGQGTQVTVSS” was “low polyreactivity”; that for “QVQLVESGGGLVQAGGSLRLSCAASGFIFITYAMGWYRQAPGKEMELVAAITYSDGSTYYADSVKGRFTISRDNAKNTVYLQMNSLKPEDTAVYYCAADSSTFPADYYWGKGTQVTVSS” was “low polyreactivity”; that for “QVQLVESGGGLVQAGGSLRLSCAASGSIFDKNAMGWYRQAPGKERELVAAISRSGGRTYYADSVKGRFTISRDNAKNTVYLQMNSLKPEDTAVYYCNAVYYYRPYWRQSTLSQYGYWGQGTQVTVSS” was “high polyreactivity”.
The value for “QVQLVESGGGLVQAGGSLRLSCAASGFTFYTYAMGWYRQAPGKERELVAAINRSGGRTFYADSVKGRFTISRDNAKNTDYLQMNSLKPEDTAVYYCAADSRPYVGGMDYWGQGTQVTVSS” was “high polyreactivity”; that for “QVQLVESGGGLDQAGGSLRLSGAASGRILWYNAMGWYRQAPGKERELVAAISWTGGSTYYADSVKGRFTISRDNAKNTVYLQMNSLKPEDTAVYYCNVDTPYTQGFDQRQGYTFDYWGQGTQVTVSS” was “low polyreactivity”.
